# Data reported in patent US12605469B2, “Tumor specific antibody conjugates and uses therefor” (The University of North Carolina at Charlotte, priority 2019, dated 2026).
# Target: T1, shed MUC1 (Homo sapiens, UniProt P15941)
# T1 construct: from tissue; host or cells: human plasma, diluted 1:2 and 1:10
# Assay: enzyme immunoassay (EIA) for shed MUC1 in plasma
# Procedure: To that end, the ability of TAB-004 to detect levels of shed MUC1 in the plasma of patients was compared to the performances of these antibodies in plasma samples. An enzyme immunoassay (EIA) has been optimized using the TAB-004 antibody to capture and detect levels of shed MUC1 present in circulation. Briefly, a 96-well ELISA plate was coated with 100 μl of TAB-004 antibody at 50 μg/mL in PBS and incubated overnight at 4° C. Following incubation, excess TAB-004 capture antibody was removed from the plate. The plate was blocked with 200 μl of 1% dry milk in PBS to avoid non-specific binding and incubated for 1 hour at 4° C. The plates were washed extensively (3 times) with 250 μl PBS containing 0.05% (v/v) TWEEN®-20 using an ELISA plate washer. A MUC1 standard using a 25-mer polypeptide preparation from MUC1 TR was prepared ranging from 0-2000 U/ml. The test plasma was diluted 1:2, and 1:10 in 0.1% milk in PBS, and 100 μl was added to the appropriate wells in triplicate, and the plates were incubated for 2 hours at 37° C.
# Plates were then washed and 100 μl of a polyclonal rabbit anti-MUC1 antibody (Genway) were added at 1:300,000 dilution in 0.1% milk in PBS to each well, and the plate was incubated for 1 hour at 37° C. The polyclonal antibody was washed from the wells and horse radish peroxidase-labeled goat anti-rabbit IgG was added at a 1:1,000 dilution in 0.1% milk in PBS and incubated at 37° C. for 1 hour. After washing the plates, 100 μL of a solution consisting of peroxidase substrate (TMB) was added to the wells, and the plates incubated at room temperature for 30 minutes in the dark. The reaction was stopped by the addition of 25 μl of 4.0 N sulfuric acid, and the optical density read at a wavelength of 450 nm using a SPECTRA-MAX 250 spectrophotometer. Standard curves were generated with regression analyses to determine concentrations of the unknown samples.
# Arbitrary units (U)/ml were chosen based on an initial reference standard of MUC1. A linear range was determined to be 50-800 units/ml of MUC1 antigen. […]
# T1 sequence (P15941 24-1097 limits assumed): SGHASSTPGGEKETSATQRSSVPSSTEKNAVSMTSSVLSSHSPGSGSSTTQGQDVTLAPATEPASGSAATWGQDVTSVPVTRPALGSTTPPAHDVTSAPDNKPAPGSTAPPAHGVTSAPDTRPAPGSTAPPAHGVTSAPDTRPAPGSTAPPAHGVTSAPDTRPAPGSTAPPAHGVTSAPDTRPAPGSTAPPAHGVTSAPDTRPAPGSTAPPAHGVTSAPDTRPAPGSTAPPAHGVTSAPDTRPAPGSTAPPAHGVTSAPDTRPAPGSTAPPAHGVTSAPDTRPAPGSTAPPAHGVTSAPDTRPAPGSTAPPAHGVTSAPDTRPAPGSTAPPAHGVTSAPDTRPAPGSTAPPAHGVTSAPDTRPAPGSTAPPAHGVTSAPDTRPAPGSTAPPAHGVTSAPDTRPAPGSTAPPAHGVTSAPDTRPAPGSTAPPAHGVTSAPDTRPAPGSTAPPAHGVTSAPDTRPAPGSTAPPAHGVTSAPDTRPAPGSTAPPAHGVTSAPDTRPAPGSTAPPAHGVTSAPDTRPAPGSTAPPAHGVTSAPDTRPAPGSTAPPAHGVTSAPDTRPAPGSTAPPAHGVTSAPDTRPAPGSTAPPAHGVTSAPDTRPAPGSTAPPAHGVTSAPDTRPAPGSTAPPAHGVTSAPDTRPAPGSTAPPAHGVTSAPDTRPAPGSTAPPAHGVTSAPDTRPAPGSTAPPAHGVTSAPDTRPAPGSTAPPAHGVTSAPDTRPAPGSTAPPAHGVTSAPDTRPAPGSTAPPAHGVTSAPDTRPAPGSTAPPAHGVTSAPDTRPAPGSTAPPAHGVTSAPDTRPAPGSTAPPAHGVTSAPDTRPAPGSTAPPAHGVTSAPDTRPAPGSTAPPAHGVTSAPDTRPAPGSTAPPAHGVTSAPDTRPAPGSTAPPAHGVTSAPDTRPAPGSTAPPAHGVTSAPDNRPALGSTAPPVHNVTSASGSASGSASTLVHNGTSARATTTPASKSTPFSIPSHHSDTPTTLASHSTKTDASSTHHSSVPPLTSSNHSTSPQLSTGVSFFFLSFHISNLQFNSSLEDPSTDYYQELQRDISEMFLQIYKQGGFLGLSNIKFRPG
molecule,measurement,setting,value
"TAB-004: mAb of the IgG isotype produced by hybridoma ATCC PTA-11550; binds tumor-specific epitope of human MUC1 (antibody, V domains shown) VH: EVQLQQSGGERATPGASVKMSCKTSGYTFTNYWMHWVKQRPGQGLEWIGYINPSSGYTQYNQKFKDKATLTADKSSSTAYIQLSSLTSEDSAVYYCSTYYGDYLFPYWGQGTLVTVSA VL: DVLMTQTPLSLPVSLGDQASISCRSSQDIVYGNGNTYLEWYLQKPGQSPKLLIYKVSNRFSGVPDRFSGSGSGTDFTLKISRVEAEDLGVYYCFQGSHVPYTFGGGTKLEIKR",false negatives / positivity of cancer patient plasma,36 breast cancer plasma samples for CA15-3,All cancer patient plasma was positive
same,stage 2 and stage 3 pancreatic cancer patients above the normal range,n=5 per stage,all stage 2 and stage 3 patients
same,false positive results in normal patients,"n=12 normal, cutoff <40 U/ml TAB-004, <31 U/ml CA15-3",no false positives
